Experimental data as given in the supplement of paper PMC11865577.

What was measured:
Test in all cases: pull-down binding Z-score (relative to library population); higher = stronger binding
Settings in all cases: RNA library: Library-2
[1] = system: TO-N3 (biotin conjugate)
How it was run: (§1)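 Streptavidin beads with 100 pmol of biotin-conjugated small molecule were incubated for 60 min at 25 °C with 1 μg of heat-folded Cy5- or Cy3-end-labelled RNA library in phosphate/NaCl/KCl buffer. Bound RNA was eluted in hot SDS after three washes and hybridised to a DNA barcode microarray at 55.5 °C for 20 h. Each binding score is a library-referenced Z-score, computed after beads-only subtraction and a trimmed mean of barcoded replicate probes.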

[2] = system: TO-N3-2 (biotin conjugate)
How it was run: as §1

[3] = system: TO-3-N3-2 (biotin conjugate)
How it was run: as §1

[4] = system: TO-3-N3 (biotin conjugate)
How it was run: as §1

Sequence	pull-down binding Z-score [1]	pull-down binding Z-score [2]	pull-down binding Z-score [3]	pull-down binding Z-score [4]
ACCAUUCUUCGUAAGGGUGGU	-0.223	-0.847	-0.207	-0.172
ACCAUUGGUAGAUUUGCCAAUAGGU	-0.966	-1.45	-0.848	-0.133
ACCAUUUAAUGAUGGU [DMSMaPseq_invitro_SARS-CoV-2_Motif_383]	-1.21	-1.7	-0.365	-0.648
ACCCUCAAAAAGAGAUGGCAACUAGCACUCUCCAAGGGU	0.0275	-0.427	0.0435	0.217
ACCGGUGGAAUUGCUAUCGCAAUGGCUUGUCUUGUAGGCUUGAUGUGGCUCAGCUACUUCAUUGCUUCUUUCAGACUGUUUGCGCGUACGCGUUCCAUGUGGU	1.07	0.838	0.131	1.2
ACCUAAAUAGAGGU	-1.22	-1.63	-0.686	-0.82
ACCUCGUCUAUGCUUUAAGGCAUUUUGAUGAAGGU	-0.152	-0.876	-0.357	0.13
ACCUGCUCAGUAUGAACUUAAGCAUGGU	-0.561	-0.0122	-0.184	-0.339
ACCUUGAAGGAAAACAGGGU	0.58	-0.135	0.457	0.525
ACCUUUAAUUGAAUUGUGCGUGGAUGAGGCUGGUUCUAAAUCACCCAUUCAGUACAUCGAUAUCGGU [SHAPE_invivo_SARS-CoV-2_Motif_532]	-1.07	-0.962	-0.862	-0.881
ACCUUUAGUACCUUUCUGGAUAACAAUUGCUUAUAUCAUUUGUAUUUCCACAAAGCAUUUCUAUUGGU	0.513	-0.25	-0.225	0.707
ACGACGACUACUAGCGUGCCUUUGUAAGCACAAGCUGAUGAGUACGAACUUAUGUACUCAUUCGUUUCGGAAGAGACAGGUACGUUAAUAGUUAAUAGCGU	-0.304	-0.217	-0.333	-0.319
ACGUACUGCCACUAAAGCAUACAAUGUAACACAAGCUUUCGGCAGACGU	0.464	0.871	0.565	0.386
ACGUGAGUCUUGUAAAACCUUCUUUUUACGUUUACUCUCGU	0.206	-0.213	0.0619	0.0863
ACGUGGCUUUGGAGACUCCGUGGAGGAGGUCUUAUCAGAGGCACGU	0.0366	0.34	0.0243	-0.105
ACUAAAAAUGU [SHAPE_invitro_SARS-CoV-2_Motif_381]	-0.167	-0.642	-0.343	0.184
ACUAAAAUAAAACCUCAUAAUUCACAUGAAGGUAAAACAUUUUAUGUUUUACCUAAUGAUGACACUCUACGUGUUGAGGCUUUUGAGU [DMSMaPseq_invitro_SARS-CoV-2_Multi_18_ComplexLevel_1]	-1.12	-1.02	-0.146	-0.89

Sequence	pull-down binding Z-score [1]	pull-down binding Z-score [2]	pull-down binding Z-score [3]	pull-down binding Z-score [4]
AGGUAAAACCAACAGUGGUUGUUAAUGCAGCCAAUGUUUACCU	-1.2	-1.45	-0.615	-0.405
AGGUAAGUAUGAUACUUACCUG [U1snRNP5ss-2]	-0.856	-0.8	-0.581	-0.742
AGGUCAAAUCAAUGAUAUGAUUUUAUCU [SHAPE_invitro_SARS-CoV-2_Motif_388]	-1.31	-1.35	-0.624	-0.87
AGGUCCAGACAUGUUCCUCGGAACUUGUCGGCGUUGUCCU	-0.838	0.332	-0.441	-0.757
AGGUUGGACAGCUGGUGCUGCAGCUU [SHAPE_invivo_SARS-CoV-2_Motif_420]	0.754	0.891	0.159	0.658
AGGUUGGUAUGCAAAAGUAUUCUACACUCCAGGGACCACCUGGUACUGGUAAGAGUCAUUUUGCUAUUGGCCU	-0.418	0.696	-0.203	-0.654
AGUACACCUUUGAAAAAGGUGACU	-1.22	-1.09	-0.572	-0.883
AGUAUGGCUACAUACU [DMSMaPseq_invitro_SARS-CoV-2_Motif_53]	-1.06	-1.19	-0.367	-0.637
AGUCAGACAAAUCGCUCCAGGGCAAACUGGAAAGAUUGCUGAUU	0.0567	0.136	0.0858	0.0712
AGUCAUAACAAGAGAAGUGGGUUUUGUCGUGCCUGGUUUGCCUGGCACGAUAUUACGCACAACUAAUGGUGACU [DMSMaPseq_invitro_SARS-CoV-2_Motif_162]	-0.62	-0.252	-0.178	-0.612
AGUCAUAGUCAGUUAGGUGGUUUACAUCUACUGAUUGGACU	-1.35	-0.775	-0.281	-1.18
AGUCCCUGUUGCUAUUCAUGCAGAUCAACUUACUCCUACUUGGCGUGUUUAUUCUACAGGUUCUAAUGUUUUUCAAACACGUGCAGGCUGUUUAAUAGGGGCU	-1.03	-0.608	-0.638	-0.948
AGUCUUGUAGUGCGUUGUUCGUUCUAUGAAGACU	-0.932	-1.06	-0.844	-0.733
AGUGAGUACACUGGUAAUUACCAGUGUGGUCACU [SHAPE_invivo_SARS-CoV-2_Motif_119]	-0.332	-1.01	0.0249	0.0351
AGUGAUGGAACU [DMSMaPseq_invitro_SARS-CoV-2_Motif_229]	-0.658	-0.572	-0.117	-0.565
AGUGCCAACAGACAAUUAUAUAACCACUUACCCGGGUCAGGGUUUAAAUGGUUACACU	-0.462	-0.739	-0.123	-0.449
AGUGUAAAAGUGCCUUUUACAUU [DMSMaPseq_invitro_SARS-CoV-2_Motif_79]	-0.863	-1.12	-0.399	-0.69
